Test results from publication PMC10309188.

Experiments:
Experiment in all cases: SPR
[1] = target: wildtype MR1 refolded with 5-F-SA, biotinylated (SPR) (UniProt Q95460)
[2] = target: MR1 E76Q E149Q refolded with 5-FSA, biotinylated (SPR) (UniProt Q95460)
[3] = target: wildtype MR1 refolded with 6-FP, biotinylated (SPR) (UniProt Q95460)
[4] = target: MR1 E76Q E149Q refolded with 6-FP, biotinylated (SPR) (UniProt Q95460)

- Kd [1]: > 150 µM
- Kd [2]: > 150 µM
- Kd [3]: > 150 µM
- Kd [4]: > 150 µM
Substance: AF-7 TCR
